Measurements reported in patent publication US20240060126.

What was measured:
[1] = target: MspA-((Del-L74/G75/D118/L119)E59N/L88N/D90N/D91N/Q126R/D134R/E139K)8
[2] = target: MspA-((Del-L74/G75/D118/L119)D56N/E59W/L88N/D90N/D91N/Q126R/D134R/E139K)8
[3] = target: MspA-((Del-L74/G75/D118/L119)D56N/E59Y/L88N/D90N/D91N/Q126R/D134R/E139K)8
[4] = target: MspA-((Del-L74/G75/D118/L119)D56L/E59L/L88N/D90N/D91N/Q126R/D134R/E139K)8
[5] = target: MspA-((Del-L74/G75/D118/L119)E57R/E59N/L88N/D90N/D91N/Q126R/D134R/E139K)8
[6] = target: MspA-((Del-L74/G75/D118/L119)D56W/E59R/L88N/D90N/D91N/Q126R/D134R/E139K)8
[7] = target: MspA-((Del-L74/G75/D118/L119)D56N/E59S/L88N/D90N/D91N/Q126R/D134R/E139K)8
[8] = target: MspA-((Del-L74/G75/D118/L119)D56N/E59F/L88N/D90N/D91N/Q126R/D134R/E139K)8
[9] = target: MspA-((Del-L74/G75/D118/L119)D56N/E59T/L88N/D90N/D91N/Q126R/D134R/E139K)8
[10] = target: MspA-((Del-L74/G75/D118/L119)G1A/D56N/E59F/L88N/D90N/D91N/Q126R/D134R/E139K)8
[11] = target: MspA-((Del-L74/G75/D118/L119)D56N/E57N/E59N/L88N/D90N/D91N/Q126R/D134R/E139K)8
[12] = target: MspA-((Del-L74/G75/D118/L119)E59F/L88N/D90N/D91N/Q126R/D134R/E139K)8
[13] = target: MspA-((Del-L74/G75/D118/L119)D56N/L88N/D90N/D91N/Q126R/D134R/E139K)8

B1: T4 Dda-E94C/C109A/C136A/A360C (SEQ ID NO: 24 with mutations E94C/C109A/C136A/A360C) (protein)
chain: MTFDDLTEGQKNAFNIVMKAIKEKKHHVTINGPAGTGKTTLTKFIIEALISTGETGIILAAPTHAAKKILSKLSGKEASTIHSILKINPVTYECNVLFEQKEVPDLAKARVLICDEVSMYDRKLFKILLSTIPPWATIIGIGDNKQIRPVDPGENTAYISPFFTHKDFYQCELTEVKRSNAPIIDVATDVRNGKWIYDKVVDGHGVRGFTGDTALRDFMVNYFSIVKSLDDLFENRVMAFTNKSVDKLNSIIRKKIFETDKDFIVGEIIVMQEPLFKTYKIDGKPVSEIIFNNGQLVRIIEAEYTSTFVKARGVPGEYLIRHWDLTVETYGDDEYYREKIKIISSDEELYKFNLFLGKTCETYKNWNKGGKAPWSDFWDAKSQFSKVKALPASTFHKAQGMSVDRAFIYTPCIHYADVELAQQLLYVGVTRGRYDVFYV
Question: With B1 as the protein, how does the Average Signal to Noise (S2N) [1] read?
Answer: 13.3

Question: And the Mean Current Range [1]?
Answer: 14.7 pA

Question: And the Mean Noise of the Signal [1]?
Answer: 1.11

Question: And the Median Current Range [1]?
Answer: 14.7 pA

Question: And the Median Noise of the Signal [1]?
Answer: 1.08

Question: And the Standard Deviation of the Current Range [1]?
Answer: 2.36 pA

Question: And the Standard Deviation of the Noise of the Signal [1]?
Answer: 0.19

Question: What about the Average Signal to Noise (S2N) [2] of the same protein?
Answer: 11

Question: What about the Mean Current Range [2] of the same protein?
Answer: 15.2 pA

Question: What about the Mean Noise of the Signal [2] of the same protein?
Answer: 1.38

Question: What about the Median Current Range [2] of the same protein?
Answer: 15.1 pA

Question: And the Median Noise of the Signal [2]?
Answer: 1.32

Question: And the Standard Deviation of the Current Range [2]?
Answer: 1.85

Question: And the Standard Deviation of the Noise of the Signal [2]?
Answer: 0.26

Question: And the Average Signal to Noise (S2N) [3]?
Answer: 10.7

Question: What about the Mean Current Range [3] of the same protein?
Answer: 15.9 pA

Question: What about the Mean Noise of the Signal [3] of the same protein?
Answer: 1.48

Question: And the Median Current Range [3]?
Answer: 15.9 pA

Question: What about the Median Noise of the Signal [3] of the same protein?
Answer: 1.43

Question: And the Median S2N [3]?
Answer: 10.4

Question: What about the Percentage of complement slipping forwards [3] of the same protein?
Answer: 0.3%

Question: What about the Standard Deviation of S2N [3] of the same protein?
Answer: 0.66

Question: And the Standard Deviation of the Current Range [3]?
Answer: 1.92 pA

Question: And the Standard Deviation of the Noise of the Signal [3]?
Answer: 0.24

Question: And the “slips forward per kilobase” value [3]?
Answer: less than 5 slips forward per kilobase

Question: And the “slips forward per kilobase” value [4]?
Answer: less than 5 slips forward per kilobase

Question: And the Average Signal to Noise (S2N) [5]?
Answer: 10.6

Question: And the Mean Current Range [5]?
Answer: 14.7 pA

Question: What about the Mean Noise of the Signal [5] of the same protein?
Answer: 1.4

Question: What about the Median Current Range [5] of the same protein?
Answer: 14.6 pA

Question: What about the Median Noise of the Signal [5] of the same protein?
Answer: 1.22

Question: And the Standard Deviation of the Current Range [5]?
Answer: 1.88

Question: What about the Standard Deviation of the Noise of the Signal [5] of the same protein?
Answer: 0.45

Question: And the Average Signal to Noise (S2N) [6]?
Answer: 10.7

Question: What about the Mean Current Range [6] of the same protein?
Answer: 14.4 pA

Question: And the Mean Noise of the Signal [6]?
Answer: 1.35

Question: What about the Median Current Range [6] of the same protein?
Answer: 14.3 pA

Question: And the Median Noise of the Signal [6]?
Answer: 1.28

Question: What about the Median S2N [6] of the same protein?
Answer: 11.9

Question: And the Percentage of complement slipping forwards [6]?
Answer: 0.25%

Question: What about the Standard Deviation of S2N [6] of the same protein?
Answer: 0.33

Question: What about the Standard Deviation of the Current Range [6] of the same protein?
Answer: 1.79

Question: And the Standard Deviation of the Noise of the Signal [6]?
Answer: 0.26

Question: What about the Average Signal to Noise (S2N) [7] of the same protein?
Answer: 11.4

Question: What about the Mean Current Range [7] of the same protein?
Answer: 15 pA

Question: And the Mean Noise of the Signal [7]?
Answer: 1.31

Question: And the Median Current Range [7]?
Answer: 14.9 pA

Question: What about the Median Noise of the Signal [7] of the same protein?
Answer: 1.27

Question: And the Median S2N [7]?
Answer: 11.3

Question: And the Percentage of complement slipping forwards [7]?
Answer: 0.43%

Question: And the Standard Deviation of S2N [7]?
Answer: 0.29

Question: And the Standard Deviation of the Current Range [7]?
Answer: 1.7

Question: What about the Standard Deviation of the Noise of the Signal [7] of the same protein?
Answer: 0.23

Question: And the Average Signal to Noise (S2N) [8]?
Answer: 12.8

Question: What about the Mean Current Range [8] of the same protein?
Answer: 15.8 pA

Question: And the Mean Noise of the Signal [8]?
Answer: 1.24

Question: And the Median Current Range [8]?
Answer: 15.7 pA

Question: And the Median Noise of the Signal [8]?
Answer: 1.17

Question: And the Median S2N [8]?
Answer: 12.8

Question: What about the Percentage of complement slipping forwards [8] of the same protein?
Answer: 0.25%

Question: And the Standard Deviation of S2N [8]?
Answer: 0.12

Question: And the Standard Deviation of the Current Range [8]?
Answer: 1.86 pA

Question: What about the Standard Deviation of the Noise of the Signal [8] of the same protein?
Answer: 0.27

Question: And the Average Signal to Noise (S2N) [9]?
Answer: 12.3

Question: What about the Mean Current Range [9] of the same protein?
Answer: 16 pA

Question: What about the Mean Noise of the Signal [9] of the same protein?
Answer: 1.31

Question: What about the Median Current Range [9] of the same protein?
Answer: 16.1 pA

Question: What about the Median Noise of the Signal [9] of the same protein?
Answer: 1.26

Question: What about the Median S2N [9] of the same protein?
Answer: 12.6

Question: And the Percentage of complement slipping forwards [9]?
Answer: 0.8%

Question: And the Standard Deviation of S2N [9]?
Answer: 0.87

Question: What about the Standard Deviation of the Current Range [9] of the same protein?
Answer: 1.87 pA

Question: What about the Standard Deviation of the Noise of the Signal [9] of the same protein?
Answer: 0.24

Question: And the “slips forward per kilobase” value [10]?
Answer: less than 5 slips forward per kilobase

Question: And the Average Signal to Noise (S2N) [11]?
Answer: 13

Question: What about the Mean Current Range [11] of the same protein?
Answer: 19 pA

Question: What about the Mean Noise of the Signal [11] of the same protein?
Answer: 1.46

Question: And the Median Current Range [11]?
Answer: 19.2 pA

Question: And the Median Noise of the Signal [11]?
Answer: 1.35

Question: What about the Standard Deviation of the Current Range [11] of the same protein?
Answer: 2.07 pA

Question: What about the Standard Deviation of the Noise of the Signal [11] of the same protein?
Answer: 0.36

Question: What about the Average Signal to Noise (S2N) [12] of the same protein?
Answer: 11.4

Question: And the Mean Current Range [12]?
Answer: 15.7 pA

Question: And the Mean Noise of the Signal [12]?
Answer: 1.37

Question: What about the Median Current Range [12] of the same protein?
Answer: 15.7 pA

Question: And the Median Noise of the Signal [12]?
Answer: 1.33

Question: And the Median S2N [12]?
Answer: 11.8

Question: And the Percentage of complement slipping forwards [12]?
Answer: 0.3%

Question: What about the Standard Deviation of S2N [12] of the same protein?
Answer: 0.64

Question: What about the Standard Deviation of the Current Range [12] of the same protein?
Answer: 1.81 pA

Question: And the Standard Deviation of the Noise of the Signal [12]?
Answer: 0.22

Question: And the Average Signal to Noise (S2N) [13]?
Answer: 12.3

Question: What about the Mean Current Range [13] of the same protein?
Answer: 14.7 pA

Question: What about the Mean Noise of the Signal [13] of the same protein?
Answer: 1.2

Question: And the Median Current Range [13]?
Answer: 14.6 pA

Question: And the Median Noise of the Signal [13]?
Answer: 1.17

Question: What about the Standard Deviation of the Current Range [13] of the same protein?
Answer: 1.66 pA

Question: And the Standard Deviation of the Noise of the Signal [13]?
Answer: 0.15
